Our source for the Kd values is patent publication US20230416345A1, “NEW TYPE II COLLAGEN BINDING PROTEINS” (Navigo Proteins GmbH, priority 2020, published 2023).

Test [1] concerns the target human type II collagen (type II collagen alpha I chain) (human) (UniProt P02458). Briefly: ELISA, collagen coated on the plate, dilution series of the binder, detection via StrepTag, A 450-600 nm.
Test [2] has the same target. Briefly: SPR, Biacore 3000, Langmuir 1:1 model. A general note: In SPR one partner is held on a chip, and binding of the other changes the refractive index at the surface.
Test [3] has the same target. Kind of test: ELISA (KD determination by ELISA, Example 5). In general terms: ELISA stands for enzyme-linked immunosorbent assay.

B1: CID 211999 (SEQ ID NO: 38), dimer of SEQ ID NO: 2 (directly joint monomers) (designed binder, not shown: small tags and cut ends)
chain: IAAKFDEAQSAADSEILHLPNLTEQQRHYFRRWLSDDPSVSTHILTQAQHLNDDQAPKIAAKFDEAQSAADSEILHLPNLTEQQRHYFRRWLSDDPSVSTHILTQAQHLNDDQAPKSAWSHPQFEK
The Kd is the constant that tells how readily two partners part at equilibrium. Higher therefore signals weaker binding. As for B1, the Kd in test [1] stood at 8.06 nM; in test [2], 127 nM.

B2: CID 212000 (SEQ ID NO: 39), dimer of SEQ ID NO: 2 with linker between the monomers (designed binder, not shown: small tags and cut ends)
chain: IAAKFDEAQSAADSEILHLPNLTEQQRHYFRRWLSDDPSVSTHILTQAQHLNDDQAPKGGGGSGGGGSGGGGSGGGGSIAAKFDEAQSAADSEILHLPNLTEQQRHYFRRWLSDDPSVSTHILTQAQHLNDDQAPKSAWSHPQFEK
B2: the dissociation constant Kd in test [1] came to 6.38 nM; in test [2] it was 180 nM.

B3: 210987 (SEQ ID NO: 36) (designed binder, not shown: small tags and cut ends)
chain: IAAKFDEAQQAAFYEILHLPNLTEQQRNYFIQWLRDDPSVSLEVLGTAQRLNDSQAPKIAAKFDEAQQLAFYQILHLENLTEEQRNAFIQSLRDDPSVSLEVLGEAIKLNLSQAPK
With B3, the Kd in test [3] amounted to 460 nM; in test [2], 169 nM.

B4: CID 212001 (SEQ ID NO: 41), tetramer of SEQ ID NO: 2 (designed binder, not shown: small tags and cut ends)
chain: IAAKFDEAQSAADSEILHLPNLTEQQRHYFRRWLSDDPSVSTHILTQAQHLNDDQAPKIAAKFDEAQSAADSEILHLPNLTEQQRHYFRRWLSDDPSVSTHILTQAQHLNDDQAPKIAAKFDEAQSAADSEILHLPNLTEQQRHYFRRWLSDDPSVSTHILTQAQHLNDDQAPKIAAKFDEAQSAADSEILHLPNLTEQQRHYFRRWLSDDPSVSTHILTQAQHLNDDQAPKSAWSHPQFEK
For B4, the Kd was 0.3 nM in test [1] and less than 0.5 nM in test [2].
